This series deals with Sclerostin (SOST) (Mus musculus, UniProt Q99P68 Q99P68:1-211). In words: ITC; PBS, 25 C; n=0.91, dH -10.9 kcal/mol, TdS -2.3 kcal/mol. The settings on record: tags: GST fusion (pGEX-4T1, E. coli BL21(DE3)); parallel G4 (CD, Tm 75 C). The procedure: Sclerostin-aptamer interaction was investigated by studying the thermodynamics of the interaction of aptamer Scl 2 with sclerostin by Isothermal Titration Calorimetry. In the upper panel of FIG. 7 the calorimetric titrations of the aptamers into sclerostin solution conducted at 25° C. An exothermic heat pulse was observed after each injection of aptamers into the protein solution. The binding stoichiometry was fitted using simple single site binding model. […] The dissociation constant for the interaction of aptamer Scl 2 with sclerostin is 500 nM that is a competitive value in DNA-protein interactions. In addition, the values of ΔH and ΔS reveal that the binding processes are enthalpically driven with a favorable enthalpy of reaction (ΔH) at 25° C. of −10.9 kcal/mol offset by an unfavorable entropy of reaction (TΔS=−2.3 kcal/mol).
Chain of Sclerostin (SOST) (Q99P68 whole entry, the tested form may be a part, one chain of several): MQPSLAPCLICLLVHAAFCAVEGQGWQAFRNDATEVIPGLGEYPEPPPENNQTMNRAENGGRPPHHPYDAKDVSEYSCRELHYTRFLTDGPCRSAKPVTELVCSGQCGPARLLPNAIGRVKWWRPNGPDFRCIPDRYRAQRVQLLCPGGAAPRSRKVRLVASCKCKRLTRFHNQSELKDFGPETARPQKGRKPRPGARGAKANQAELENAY
For Isothermal Titration Calorimetry, equilibrium binding studies between anti-sclerostin aptamers and scleorstin are performed on MicroCal VP-ITC. In a typical ITC experiment, 15 μM GST-sclerostin or 20 μM GST was loaded into the cell with 200 μM aptamer or random sequence in the titrating syringe. GST-sclerostin and GST were dialyzed into the PBS buffer with a MWCO of 10,000. The titration experiments were performed at 25° C. with an initial 0.2 μl injection, followed by thirty 1.2 μl A injections. The spacing between injections was 200 s. […]
Background: ITC needs no label: the signal is the heat of the interaction.

B1: Scl 2 (ssDNA)
DNA: TTGCGCGTTAATTGGGGGGGTGGGTGGGTT
In the case of B1, binding was characterised by a dissociation constant (Kd) of 500 nM.

The values are drawn from patent US8552166, “High-affinity nucleic acid aptamers against sclerostin protein” (The University of Hong Kong).
